Assay results: the Immune Epitope Database (IEDB)
Each block holds one sequence with its values, some of them ahead of it.

Experiments:
HLA-B*40:01 = assay: IEDB peptide-MHC binding, purified MHC/competitive/radioactivity; filed as Kd, often an IC50 or EC50 that approximates it; ≥ and ≤ were set here for values at or beyond the usual limits of such assays; details: source organism: Dengue virus 2 Jamaica/1409/1983
HLA-B*44:02 = assay: as above
HLA-B*44:03 = assay: as above
HLA-A*32:01 = assay: as above
HLA-A*30:01 = assay: as above
HLA-A*31:01 = assay: IEDB peptide-MHC binding, purified MHC/direct/fluorescence; filed as Kd, often an IC50 or EC50 that approximates it; ≥ and ≤ were set here for values at or beyond the usual limits of such assays
HLA-A*68:01 = assay: IEDB peptide-MHC binding, purified MHC/competitive/radioactivity; filed as Kd, often an IC50 or EC50 that approximates it; ≥ and ≤ were set here for values at or beyond the usual limits of such assays; details: source organism: SARS coronavirus Tor2
HLA-A*33:01 = assay: as above; details: source organism: SARS coronavirus Tor2
HLA-A*03:01 [1] = assay: as above; details: source organism: Dengue virus 4 Philippines/H241/1956
HLA-A*24:02 [2] = assay: IEDB peptide-MHC binding, purified MHC/competitive/fluorescence; ≥ and ≤ were set here for values at or beyond the usual limits of such assays
HLA-B*53:01 = assay: IEDB peptide-MHC binding, purified MHC/competitive/radioactivity; filed as Kd, often an IC50 or EC50 that approximates it; ≥ and ≤ were set here for values at or beyond the usual limits of such assays
HLA-A*26:01 = assay: as above
HLA-A*01:01 = assay: as above
HLA-A*30:02 = assay: as above
HLA-A*24:02 [3] = assay: as above; details: source organism: Mammarenavirus brazilense
HLA-A*29:02 = assay: as above
HLA-A*23:01 = assay: as above; details: source organism: Mammarenavirus brazilense
HLA-A*02:01 [4] = assay: IEDB peptide-MHC binding, purified MHC/competitive/fluorescence; ≥ and ≤ were set here for values at or beyond the usual limits of such assays
HLA-A*02:01 [5] = assay: IEDB peptide-MHC binding, purified MHC/competitive/fluorescence; filed as Kd, often an IC50 or EC50 that approximates it; ≥ and ≤ were set here for values at or beyond the usual limits of such assays
HLA-A*03:01 [6] = assay: IEDB peptide-MHC binding, purified MHC/direct/fluorescence; filed as Kd, often an IC50 or EC50 that approximates it; ≥ and ≤ were set here for values at or beyond the usual limits of such assays; details: source organism: Rickettsia conorii
HLA-B*15:01 = assay: as above; details: source organism: Rickettsia conorii
HLA-B*58:01 = assay: as above; details: source organism: Rickettsia conorii
HLA-A*11:01 = assay: as above; details: source organism: Rickettsia conorii
HLA-A*69:01 = assay: as above; details: source organism: Rickettsia conorii
HLA-A*02:01 [7] = assay: as above; details: source organism: Rickettsia conorii
HLA-A*02:06 = assay: IEDB peptide-MHC binding, purified MHC/competitive/radioactivity; filed as Kd, often an IC50 or EC50 that approximates it; ≥ and ≤ were set here for values at or beyond the usual limits of such assays; details: source organism: Dengue virus 1 Brazil/97-11/1997
HLA-B*35:01 = assay: as above; details: source organism: Dengue virus 3 Martinique/1243/1999
[8] = source organism: Dengue virus 2 Jamaica/1409/1983
[9] = source organism: Vaccinia virus WR
[10] = source organism: Dengue virus 3 Martinique/1243/1999
[11] = source organism: Dengue virus 4 Philippines/H241/1956
[12] = source organism: Mammarenavirus brazilense
[13] = source organism: Mammarenavirus tacaribeense
[14] = source organism: Dengue virus 1 Brazil/97-11/1997

Sequence: AEPPFGDSYI
Kd (HLA-B*40:01): 1990 nM
Kd (HLA-B*44:02; [8]): 432 nM
Kd (HLA-B*44:03; [8]): 79.3 nM

Sequence: ALATFTVNI
Kd (HLA-A*32:01; [9]): 6.07 nM

Sequence: ASKTINALV
Kd (HLA-A*30:01; [9]): 0.175 nM

Sequence: AVDPAKAYK
Kd (HLA-A*31:01; source organism: SARS-CoV1): 293 nM
Kd (HLA-A*68:01): 553 nM
Kd (HLA-A*33:01): 3420 nM

Sequence: AVSRGSAKLQ
Kd (HLA-A*30:01; [10]): 1290 nM

Sequence: AWRTATLIL
Kd (HLA-A*30:01; [10]): 592 nM

Sequence: CLRRRVTRK
Kd (HLA-A*30:01; [11]): 3140 nM
Kd (HLA-A*03:01 [1]): 2.7 nM

Sequence: DFQESADSF
IC50 (HLA-A*24:02 [2]; source organism: Zaire ebolavirus): 55000 nM

Sequence: EPDYEVDEDI
Kd (HLA-B*53:01; [11]): 1170 nM

Sequence: ETRAETWMSS
Kd (HLA-A*32:01; [11]): ≥ 47200 nM
Kd (HLA-A*26:01; [11]): 504 nM

Sequence: FPQSNAPIQ
Kd (HLA-B*53:01; [10]): 69.8 nM

Sequence: GERSRCYSLY
Kd (HLA-A*01:01; [12]): ≥ 26700 nM
Kd (HLA-A*30:02; [12]): 718 nM
Kd (HLA-A*30:01; [12]): 5430 nM
Kd (HLA-A*32:01; [12]): ≥ 69900 nM
Kd (HLA-A*26:01; [12]): ≥ 69700 nM
Kd (HLA-A*24:02 [3]): ≥ 70300 nM
Kd (HLA-A*29:02; [12]): 14400 nM
Kd (HLA-A*23:01): ≥ 70000 nM

Sequence: GILPWTKIS
IC50 (HLA-A*24:02 [2]; [9]): ≥ 133000 nM
IC50 (HLA-A*02:01 [4]; [9]): 17200 nM

Sequence: GVSGGAWVDL
Kd (HLA-A*32:01; [11]): ≥ 69900 nM

Sequence: HIKNDFMIK
Kd (HLA-A*30:01; [9]): 1.6 nM

Sequence: HIYFVSLLL
Kd (HLA-A*32:01; [9]): 15.3 nM

Sequence: HLGNVKYLV
Kd (HLA-A*02:01 [5]; source organism: Plasmodium falciparum): 6.5 nM

Sequence: HTASGEHSL
Kd (HLA-A*01:01; [12]): ≥ 25100 nM
Kd (HLA-A*30:02; [12]): 5640 nM
Kd (HLA-A*30:01; [12]): 8480 nM
Kd (HLA-A*32:01; [12]): 11900 nM
Kd (HLA-A*26:01; [12]): 16500 nM
Kd (HLA-A*29:02; [12]): ≥ 78900 nM

Sequence: HYAYMVPGW
IC50 (HLA-A*24:02 [2]; source organism: West Nile virus): 220 nM

Sequence: HYDQKLGSY
Kd (HLA-A*01:01; [13]): 11000 nM
Kd (HLA-A*30:02; [13]): 89.8 nM
Kd (HLA-A*30:01; [13]): 5540 nM
Kd (HLA-A*32:01; [13]): 19400 nM
Kd (HLA-A*26:01; [13]): ≥ 36000 nM
Kd (HLA-A*29:02; [13]): ≥ 20300 nM

Sequence: IGEWAFWEN
IC50 (HLA-A*24:02 [2]; source organism: Sudan ebolavirus): 58800 nM

Sequence: IGFLVLWIGT
Kd (HLA-A*32:01; [11]): ≥ 69900 nM

Sequence: IHAKHEWMTT
Kd (HLA-A*32:01; [8]): 5230 nM

Sequence: ILLFVIVIY
Kd (HLA-A*32:01; [9]): 952 nM

Sequence: ISQHQHLAI
Kd (HLA-A*32:01; [9]): 107 nM

Sequence: ITDVIVQSI
Kd (HLA-A*32:01; [9]): 256 nM

Sequence: ITFLRVLSI
Kd (HLA-A*32:01; [11]): 100 nM

Sequence: ITTDSRCPTQ
Kd (HLA-A*30:01; [10]): 866 nM

Sequence: KAKEMNALS
Kd (HLA-A*30:01; [9]): 50.5 nM

Sequence: KAMWKYPFS
Kd (HLA-A*30:01; [9]): 250 nM

Sequence: KAQREIFSA
IC50 (HLA-A*24:02 [2]; source organism: Variola virus): 165 nM
IC50 (HLA-A*02:01 [4]; source organism: Variola virus): 2010 nM

Sequence: KLNENIIRF
Kd (HLA-A*03:01 [6]): 554 nM
Kd (HLA-B*15:01): 152 nM
Kd (HLA-B*58:01): 68.6 nM
Kd (HLA-A*31:01; source organism: Rickettsia conorii): 1280 nM
Kd (HLA-A*11:01): 5910 nM
Kd (HLA-A*69:01): 4750 nM
Kd (HLA-A*02:01 [7]): 1880 nM

Sequence: KLRGVAPL
Kd (HLA-A*02:01 [5]; source organism: Influenza A virus (A/Swine/Indiana/1726/1988(H1N1))): 2250 nM

Sequence: KMFSNNVLI
Kd (HLA-A*32:01; [9]): 1.1 nM

Sequence: KQWFLDLPL
Kd (HLA-A*32:01; [14]): 13.3 nM
Kd (HLA-A*02:06): 7.51 nM

Sequence: KSKFPRSML
Kd (HLA-A*30:01; [9]): 31.2 nM

Sequence: KTMAPVHTY
Kd (HLA-A*32:01; [9]): 4.55 nM

Sequence: KTTWLPVLL
Kd (HLA-A*32:01; [14]): 148 nM

Kd (HLA-A*02:01 [5]; source organism: Escherichia coli): 15.3 nM
Sequence: KVHADDIPV

Sequence: KVRTNAAMG
Kd (HLA-A*30:01; [10]): 11.3 nM

Sequence: LAILFEEVM
Kd (HLA-B*35:01): 33.1 nM

Sequence: LENIMWKQI
Kd (HLA-B*44:02; [14]): 115 nM
Kd (HLA-B*44:03; [14]): 204 nM
